Data as given in patent US20230340112A1 (published 2023).

What was measured:
cell-surface SIRPα (mDC) [1] = biological target: T1, cell-surface SIRPα (mDC) (human, UniProt P78324 31-504); test: FACS blocking of CD47/SIRPα; Donor #298
mDC cell surface SIRPα [2] = biological target: T2, mDC cell surface SIRPα (human, UniProt P78324 31-504); test: FACS binding; Donor #296
mDC cell surface SIRPα [3] = biological target: T2, mDC cell surface SIRPα; test: FACS binding; Donor #298
cell-surface SIRPα (mDC) [4] = biological target: T1, cell-surface SIRPα (mDC); test: FACS blocking of CD47/SIRPα; Donor #296

T2 sequence (P78324 31-504): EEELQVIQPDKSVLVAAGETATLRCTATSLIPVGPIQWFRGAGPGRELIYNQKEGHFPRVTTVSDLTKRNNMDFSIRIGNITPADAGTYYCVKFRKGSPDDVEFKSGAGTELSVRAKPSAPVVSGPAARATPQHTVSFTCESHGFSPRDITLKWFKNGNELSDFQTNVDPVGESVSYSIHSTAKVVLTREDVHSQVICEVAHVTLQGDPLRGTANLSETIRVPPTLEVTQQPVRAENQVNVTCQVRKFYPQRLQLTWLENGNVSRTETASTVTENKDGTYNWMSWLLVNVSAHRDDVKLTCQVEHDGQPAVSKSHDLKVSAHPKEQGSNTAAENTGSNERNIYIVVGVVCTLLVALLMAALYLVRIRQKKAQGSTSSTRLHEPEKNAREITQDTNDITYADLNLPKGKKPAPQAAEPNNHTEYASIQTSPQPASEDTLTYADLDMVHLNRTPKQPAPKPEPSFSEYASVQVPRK
T1 sequence (P78324 31-504): as above

B1: OSE-172 (antibody, V domains shown)
VH: EVQLVQSGAEVKKPGESLRISCKASGYSFTSYWVHWVRQMPGKGLEWMGNIDPSDSDTHYSPSFQGHVTLSVDKSISTAYLQLSSLKASDTAMYYCVRGGTGTLAYFAYWGQGTLVTVSS
VL: DVVMTQSPLSLPVTLGQPASISCRSSQSLVHSYGNTYLYWFQQRPGQSPRLLIYRVSNRFSGVPDRFSGSGSGTDFTLKISRVEAEDVGVYYCFQGTHVPYTFGGGTKVEIKR
IC50 (cell-surface SIRPα (mDC) [1]): 1.77 nM | EC50 (mDC cell surface SIRPα [2]): 0.768 nM | EC50 (mDC cell surface SIRPα [3]): 1.27 nM | IC50 (cell-surface SIRPα (mDC) [4]): 1.25 nM
